# In patent US20150299296A1 (Chugai, published 2015):
# Changes are numbered by the printed parent chain.
# T1: human FcγRIIa type H extracellular domain with C-terminal His tag (human, UniProt P12318 34-217)
# T1 construct: extracellular domain; also called FcgRIIaH; FcγRIIa H
# T1 sequence (looked up): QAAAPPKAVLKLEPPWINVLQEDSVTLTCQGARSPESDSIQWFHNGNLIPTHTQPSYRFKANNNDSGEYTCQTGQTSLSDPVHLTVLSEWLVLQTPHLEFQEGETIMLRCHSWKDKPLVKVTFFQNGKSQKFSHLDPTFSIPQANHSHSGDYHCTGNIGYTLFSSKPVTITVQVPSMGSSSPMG
# T2: human FcγRIIb extracellular domain with C-terminal His tag (human, UniProt P31994 43-217)
# T2 construct: extracellular domain; For crystals it was expressed with kifunensine and trimmed with Endo F1; also called FcgRIIb; FcγRIIb extracellular region
# T2 sequence (looked up): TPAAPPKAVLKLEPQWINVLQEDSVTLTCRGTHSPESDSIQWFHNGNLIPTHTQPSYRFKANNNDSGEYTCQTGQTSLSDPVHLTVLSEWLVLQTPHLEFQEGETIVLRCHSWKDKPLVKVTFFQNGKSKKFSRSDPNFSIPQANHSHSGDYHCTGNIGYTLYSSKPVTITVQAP
# B1: IL6R-2B253/IL6R-L (antibody, human IgG1, kappa, name in EU numbering)
# heavy: QVQLQESGPGLVKPSETLSLTCAVSGHSISHDHAWSWVRQPPGEGLEWIGFISYSGITNYNPSLQGRVTISRDNSKNTLYLQMNSLRAEDTAVYYCARSLARTTAMDYWGEGTLVTVSSASTKGPSVFPLAPSSKSTSGGTAALGCLVKDYFPEPVTVSWNSGALTSGVHTFPAVLQSSGLYSLSSVVTVPSSSLGTQTYICNVNHKPSNTKVDKKVEPKSCDKTHTCPPCPAPDLLGGDSVFLFPPKPKDTLMISRTPEVTCVVVDVSHEDPEVKFNWYVDGVEVHNAKTKPREEQYNSTYRVVSVLTVLHQDWLNGKEYKCKMSNKALPAPIEKTISKAKGQPREPQVYTLPPSRDELTKNQVSLTCLVKGFYPSDIAVEWESNGQPENNYKTTPPVLDSDGSFFLYSKLTVDKSRWQQGNVFSCSVMHEALHNHYTQESLSLSP
# light: not shown
# B2: IL6R-BP211/IL6R-L (antibody, human IgG1, kappa, name in EU numbering)
# heavy: B1 heavy with H270D, P273G, M325V, K328A, A332R
# light: not shown
# B3: IL6R-BP133/IL6R-L (antibody, human IgG1, kappa, name in EU numbering)
# heavy: B1 heavy with L236Y, M325V, A332K
# light: not shown
# B4: IL6R-BP202/IL6R-L (antibody, human IgG1, kappa, name in EU numbering)
# heavy: B1 heavy with D235E, G239D, P273G, M325V, K328A, A332R
# light: not shown
# B5: IL6R-BP145/IL6R-L (antibody, human IgG1, kappa, name in EU numbering)
# heavy: B1 heavy with D235E, L236Y, G239D, M325V
# light: not shown
# B6: IL6R-BP144/IL6R-L (antibody, human IgG1, kappa, name in EU numbering)
# heavy: B1 heavy with D235E, G239D, M325V, K328A
# light: not shown
# B7: IL6R-BP177/IL6R-L (antibody, human IgG1, kappa, name in EU numbering)
# heavy: B1 heavy with L236Y, G239D, P273G, M325V, K328D, A332K
# light: not shown
# B8: IL6R-BP086/IL6R-L (antibody, human IgG1, kappa, name in EU numbering)
# heavy: B1 heavy with D235E, M325V, K328A, A332K
# light: not shown
# B9: IL6R-BP195/IL6R-L (antibody, human IgG1, kappa, name in EU numbering)
# heavy: B1 heavy with L236Y, G239D, H270D, P273G, Y298D, M325V, K328A, A332K
# light: not shown
# notes: Same printed alterations as IL6R-BP197
# B10: IL6R-BP147/IL6R-L (antibody, human IgG1, kappa, name in EU numbering)
# heavy: B1 heavy with D235E, L236Y, G239D, M325V, K328A, A332K
# light: not shown
# B11: IL6R-BP143/IL6R-L (antibody, human IgG1, kappa, name in EU numbering)
# heavy: B1 heavy with D235E, L236Y, M325V, K328A
# light: not shown
# B12: IL6R-BP083/IL6R-L (antibody, human IgG1, kappa, name in EU numbering)
# heavy: B1 heavy with D235E, Y298D, M325V, A332K
# light: not shown
# B13: IL6R-BP082/IL6R-L (antibody, human IgG1, kappa, name in EU numbering)
# heavy: B1 heavy with M325V, A332K
# light: not shown
# B14: IL6R-BP084/IL6R-L (antibody, human IgG1, kappa, name in EU numbering)
# heavy: B1 heavy with D235E, A332K
# light: not shown
# B15: IL6R-BP151/IL6R-L (antibody, human IgG1, kappa, name in EU numbering)
# heavy: B1 heavy with L236Y, G239D, M325V, K328A, A332R
# light: not shown
# B16: IL6R-BP148/IL6R-L (antibody, human IgG1, kappa, name in EU numbering)
# heavy: B1 heavy with L236Y, G239D, M325V, K328A, A332K
# light: not shown
# B17: IL6R-BP204/IL6R-L (antibody, human IgG1, kappa, name in EU numbering)
# heavy: B1 heavy with P273G, M325V, K328A, A332R
# light: not shown
# B18: IL6R-BP205/IL6R-L (antibody, human IgG1, kappa, name in EU numbering)
# heavy: B1 heavy with P273G, Y298D, M325V, A332R
# light: not shown
# B19: IL6R-BP131/IL6R-L (antibody, human IgG1, kappa, name in EU numbering)
# heavy: B1 heavy with G239D, M325V, A332K
# light: not shown
# B20: IL6R-BP087/IL6R-L (antibody, human IgG1, kappa, name in EU numbering)
# heavy: B1 heavy with D235E, L236Y, M325V, A332K
# light: not shown
# B21: IL6R-BP085/IL6R-L (antibody, human IgG1, kappa, name in EU numbering)
# heavy: B1 heavy with D235E, G239D, M325V, A332K
# light: not shown
# B22: IL6R-BP089/IL6R-L (antibody, human IgG1, kappa, name in EU numbering)
# heavy: B1 heavy with D235E, L236Y, M325V, K328A, A332K
# light: not shown
# B23: IL6R-2B261/IL6R-L (antibody, human IgG1, kappa, name in EU numbering)
# heavy: B1 heavy with Y298D, M325V
# light: not shown
# B24: IL6R-BP212/IL6R-L (antibody, human IgG1, kappa, name in EU numbering)
# heavy: B1 heavy with H270D, P273G, Y298D, M325V, A332R
# light: not shown
# B25: IL6R-BP149/IL6R-L (antibody, human IgG1, kappa, name in EU numbering)
# heavy: B1 heavy with L236Y, G239D, Y298D, M325V, K328A, A332K
# light: not shown
# notes: Same printed alterations as IL6R-BP214
# B26: IL6R-BP191/IL6R-L (antibody, human IgG1, kappa, name in EU numbering)
# heavy: B1 heavy with H270D, P273G, M325V, K328A, A332K
# light: not shown
# B27: IL6R-BP210/IL6R-L (antibody, human IgG1, kappa, name in EU numbering)
# heavy: B1 heavy with D235E, G239D, H270D, P273G, M325V, A332R
# light: not shown
# B28: IL6R-BP150/IL6R-L (antibody, human IgG1, kappa, name in EU numbering)
# heavy: B1 heavy with D235E, L236Y, G239D, M325V, K328A, A332R
# light: not shown
# B29: IL6R-BP088/IL6R-L (antibody, human IgG1, kappa, name in EU numbering)
# heavy: B1 heavy with D235E, G239D, M325V, K328A, A332K
# light: not shown
# B30: IL6R-BP129/IL6R-L (antibody, human IgG1, kappa, name in EU numbering)
# heavy: B1 heavy with Y298D, M325V, A332K
# light: not shown
# B31: IL6R-BP190/IL6R-L (antibody, human IgG1, kappa, name in EU numbering)
# heavy: B1 heavy with D235E, G239D, H270D, P273G, M325V, A332K
# light: not shown
# B32: IL6R-BP181/IL6R-L (antibody, human IgG1, kappa, name in EU numbering)
# heavy: B1 heavy with P273G, M325V, K328A, A332K
# light: not shown
# Target: T3, human FcγRIa extracellular domain with C-terminal His tag (human, UniProt P12314 16-292)
# T3 construct: Whole entry named; also called FcgRIa; FcgIa
# Assay: SPR; IL6R-BF648/IL6R-L=100
# Experimental: (§1) IL6R-L was utilized as the common antibody L chain for all of the antibodies, the antibodies were expressed and purified according to the method of Reference Example 1, and binding to each of the FcγRs (FcγRIa, FcγRIIa type H, FcγRIIa type R, FcγRIIb, and FcγRIIIa type V) was comprehensively evaluated by the method of Reference Example 2.
# (§2) Relative binding activities were calculated for the results of analyzing interactions with the respective FcγRs according to the following method.
# T3 sequence (P12314 16-292): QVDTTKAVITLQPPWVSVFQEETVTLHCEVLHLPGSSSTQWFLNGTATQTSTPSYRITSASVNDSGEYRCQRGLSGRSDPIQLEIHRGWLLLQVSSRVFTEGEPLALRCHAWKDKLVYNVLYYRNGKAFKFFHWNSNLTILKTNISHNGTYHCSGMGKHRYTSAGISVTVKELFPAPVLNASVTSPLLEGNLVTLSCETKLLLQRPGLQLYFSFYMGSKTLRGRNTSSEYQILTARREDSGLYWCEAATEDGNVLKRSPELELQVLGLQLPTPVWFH
row,relative binding activity,Binder
1,155,B1
2,128,B2
3,41,B3
4,43,B4
5,41,B5
6,64,B6
7,57,B7
8,72,B8
9,68,B9
10,24,B10
11,86,B11
12,50,B12
13,74,B13
14,109,B14
15,39,B15
16,33,B16

row,relative binding activity,Binder
1,110,B17
2,97,B18
3,33,B19
4,33,B20
5,19,B21
6,43,B22
7,100,B23
8,117,B24
9,29,B25
10,125,B26
11,57,B27
12,30,B28
13,25,B29
14,68,B30
15,50,B31

# Target: T1, human FcγRIIa type H extracellular …
# Assay: SPR; IL6R-BF648/IL6R-L=100
# Experimental: as §1, §2
row,relative binding activity,Binder
1,207,B1
2,151,B3
3,285,B4
4,224,B5
5,108,B6
6,409,B7
7,116,B8
8,344,B9
9,582,B10
10,143,B11
11,106,B13
12,162,B14
13,621,B15
14,462,B16
15,137,B17
16,108,B18
17,253,B19
18,179,B20
19,158,B21
20,186,B22
21,135,B24
22,401,B25
23,145,B26
24,279,B27
25,770,B28
26,166,B29
27,98,B30
28,224,B31

# Target: T2, human FcγRIIb extracellular domain with …
# Assay: SPR; IL6R-BF648/IL6R-L=100
# Experimental: as §1, §2
row,relative binding activity,Binder
1,156,B1
2,165,B2
3,137,B3
4,185,B4
5,152,B5
6,121,B6
7,177,B7
8,137,B8
9,177,B10
10,133,B11
11,122,B12
12,136,B13
13,141,B14
14,176,B16
15,165,B17
16,167,B18
17,137,B20
18,152,B21
19,147,B22
20,115,B23
21,173,B24
22,173,B25
23,187,B27
24,183,B28
25,161,B29
26,138,B30

# Target: T4, human FcγRIIIa type V extracellular domain with C-terminal His tag (human, UniProt P08637 17-208)
# T4 construct: extracellular domain; also called FcgRIIIaV; FcγRIIIaV
# Assay: SPR; IL6R-BF648/IL6R-L=100
# Experimental: as §1, §2
# T4 sequence (P08637 17-208 F176V): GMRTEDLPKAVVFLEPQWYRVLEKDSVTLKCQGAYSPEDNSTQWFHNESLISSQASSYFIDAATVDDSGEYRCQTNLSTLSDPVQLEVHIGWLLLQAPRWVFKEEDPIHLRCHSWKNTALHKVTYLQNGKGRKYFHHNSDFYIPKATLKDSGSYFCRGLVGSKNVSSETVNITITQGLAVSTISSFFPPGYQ
row,relative binding activity,Binder
1,126,B1
2,87,B2
3,114,B3
4,153,B5
5,128,B6
6,186,B7
7,123,B8
8,221,B9
9,209,B10
10,114,B11
11,107,B12
12,87,B13
13,106,B14
14,221,B15
15,227,B16
16,118,B19
17,158,B20
18,104,B21
19,136,B22
20,87,B23
21,186,B25
22,142,B26
23,122,B32
24,204,B28
25,122,B29
26,95,B30
27,155,B31
